Measured values published in patent US20200385441A1 (TECHNION RESEARCH AND DEVELOPMENT FOUNDATION, published 2020).

Biological target: T1, human Melanoma-associated Chondroitin Sulfate Proteoglycan (MCSP) (human, UniProt Q6UVK1 30-2322)
T1 construct: whole, on cells; also called CSPG4; NG2
Experiment: flow cytometry on B16F10-MCSP (C25) cells, detected with Strep-PE or fold-specific anti-H-2K antibody

T1 sequence (Q6UVK1 30-2322): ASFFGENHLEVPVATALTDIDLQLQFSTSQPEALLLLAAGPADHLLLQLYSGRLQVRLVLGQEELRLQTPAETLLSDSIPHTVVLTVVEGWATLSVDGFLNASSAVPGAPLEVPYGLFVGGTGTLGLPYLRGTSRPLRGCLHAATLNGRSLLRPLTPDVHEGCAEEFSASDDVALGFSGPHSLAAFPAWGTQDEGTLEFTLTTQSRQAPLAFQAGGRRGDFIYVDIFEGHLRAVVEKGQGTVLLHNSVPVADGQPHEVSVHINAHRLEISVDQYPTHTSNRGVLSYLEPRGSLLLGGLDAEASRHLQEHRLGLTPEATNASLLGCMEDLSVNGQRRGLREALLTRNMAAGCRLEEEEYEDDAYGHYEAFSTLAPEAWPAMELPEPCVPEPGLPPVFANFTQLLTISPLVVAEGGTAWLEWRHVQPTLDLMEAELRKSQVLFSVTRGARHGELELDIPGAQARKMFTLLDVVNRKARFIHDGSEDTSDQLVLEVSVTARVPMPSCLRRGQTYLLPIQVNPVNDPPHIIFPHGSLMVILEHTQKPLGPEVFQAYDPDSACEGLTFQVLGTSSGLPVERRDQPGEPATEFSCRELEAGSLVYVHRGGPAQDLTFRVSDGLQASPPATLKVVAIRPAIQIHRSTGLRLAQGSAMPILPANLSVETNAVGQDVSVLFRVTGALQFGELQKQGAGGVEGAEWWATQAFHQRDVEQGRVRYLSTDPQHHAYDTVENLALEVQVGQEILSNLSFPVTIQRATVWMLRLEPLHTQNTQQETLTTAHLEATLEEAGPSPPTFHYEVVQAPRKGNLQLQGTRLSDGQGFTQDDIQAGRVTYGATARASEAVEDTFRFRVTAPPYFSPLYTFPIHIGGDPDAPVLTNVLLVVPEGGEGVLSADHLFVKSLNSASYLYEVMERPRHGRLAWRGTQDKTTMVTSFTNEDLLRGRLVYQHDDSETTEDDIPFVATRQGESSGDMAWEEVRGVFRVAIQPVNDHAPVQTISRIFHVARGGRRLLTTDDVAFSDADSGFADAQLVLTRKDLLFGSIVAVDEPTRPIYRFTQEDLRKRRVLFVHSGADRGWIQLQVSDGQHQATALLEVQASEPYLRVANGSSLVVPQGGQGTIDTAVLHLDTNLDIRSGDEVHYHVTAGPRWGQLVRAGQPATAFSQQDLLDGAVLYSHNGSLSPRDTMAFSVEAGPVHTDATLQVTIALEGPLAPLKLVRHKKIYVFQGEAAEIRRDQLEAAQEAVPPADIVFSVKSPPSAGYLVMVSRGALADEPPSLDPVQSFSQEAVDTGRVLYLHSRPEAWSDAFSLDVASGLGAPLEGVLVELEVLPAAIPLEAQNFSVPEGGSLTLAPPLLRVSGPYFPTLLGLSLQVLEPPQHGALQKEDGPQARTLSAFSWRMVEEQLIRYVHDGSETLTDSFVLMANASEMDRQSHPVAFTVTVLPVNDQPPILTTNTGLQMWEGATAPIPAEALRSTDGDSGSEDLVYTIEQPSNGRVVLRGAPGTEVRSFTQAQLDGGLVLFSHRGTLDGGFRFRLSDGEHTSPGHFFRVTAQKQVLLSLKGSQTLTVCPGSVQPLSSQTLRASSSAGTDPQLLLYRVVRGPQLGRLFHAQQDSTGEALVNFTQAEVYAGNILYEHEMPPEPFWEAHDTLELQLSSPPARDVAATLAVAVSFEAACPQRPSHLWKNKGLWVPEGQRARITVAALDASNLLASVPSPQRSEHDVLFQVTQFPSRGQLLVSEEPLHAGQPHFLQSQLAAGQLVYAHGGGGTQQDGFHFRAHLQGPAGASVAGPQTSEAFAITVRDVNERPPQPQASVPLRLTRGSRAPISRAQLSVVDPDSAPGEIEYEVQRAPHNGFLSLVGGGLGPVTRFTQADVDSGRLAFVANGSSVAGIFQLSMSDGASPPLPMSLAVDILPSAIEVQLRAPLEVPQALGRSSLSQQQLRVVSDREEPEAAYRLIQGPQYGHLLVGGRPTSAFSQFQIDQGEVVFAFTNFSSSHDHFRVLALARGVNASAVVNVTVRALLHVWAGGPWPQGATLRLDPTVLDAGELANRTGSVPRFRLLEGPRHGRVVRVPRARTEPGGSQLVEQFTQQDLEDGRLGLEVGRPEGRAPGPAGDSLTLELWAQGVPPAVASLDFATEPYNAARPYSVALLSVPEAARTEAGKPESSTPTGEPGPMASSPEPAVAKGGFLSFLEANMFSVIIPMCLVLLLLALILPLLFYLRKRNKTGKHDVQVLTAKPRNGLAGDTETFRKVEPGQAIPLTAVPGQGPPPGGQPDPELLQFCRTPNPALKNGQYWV

B1: BA3 biotinylated peptide-H-2Kd-anti-MCSP scFv fusion protein, 20 amino acid β2M-MHC linker (peptide-MHC)
chain: TYQRTRALVGGGGSGGGGSGGGGSIQKTPQIQVYSRHPPENGKPNILNCYVTQFHPPHIEIQMLKNGKKIPKVEMSDMSFSKDWSFYILAHTEFTPTETDTYACRVKHVSMAEPKTVYWDRDMGGGGSGGGGSGGGGSGGGGSGPHSLRYFVTAVSRPGLGEPRFIAVGYVDDTQFVRFDSDADNPRFEPRAPWMEQEGPEYWEEQTQRAKSDEQWFRVSLRTAQRYYNQSKGGSHTFQRMFGCDVGSDWRLLRGYQQFAYDGRDYIALNEDLKTWTAADTAALITRRKWEQAGDAEYYRAYLEGECVEWLRRYLELGNETLLRTDSPKAHVTYHPRSQVDVTLRCWALGFYPADITLTWQLNGEDLTQDMELVETRPAGDGTFQKWAAVVVPLGKEQNYTCHVHHKGLPEPLTLRWKLPPSTASGGQVKLQQSGGGLVQPGGSMKLSCVVSGFTFSNYWMNWVRQSPEKGLEWIAEIRLKSNNFGRYYAESVKGRFTISRDDSKSSAYLQMINLRAEDTGIYYCTSYGNYVGHYFDHWGQGTTVTVSSGGGGSGGGGSGGGGSDIELTQSPKFMSTSVGDRVSVTCKASQNVDTNVAWYQQKPGQSPEPLLFSASYRYTGVPDRFTGSGSGTDFTLTISNVQSEDLAEYFCQQYNSYPLTFGGGTKLEIKRAHHHHHHGLNDIFEAQKIEWH
notes: also called BA-biotin fusion molecule; biotinylated ScFv-MHC molecule
- binding result: binds
